test: yeast display, Sf9 membrane polyspecificity reagent, FACS + sequencing; frameworks hold sequencing errors
In short: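 After 36–48 hours of galactose induction, yeast (Saccharomyces cerevisiae BJ5465) displaying a synthetic nanobody library were stained at 4 °C for 1 hour with 10% biotinylated, detergent-solubilized Sf9 membrane reagent. Streptavidin microbeads enriched the stained cells before FACS sorting into low and high (top ~1%) gates on anti-HA and streptavidin fluorescence. Each clone's polyreactivity label reflects its gate of origin.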

Sequence | polyreactivity (PSR sort gate)
QVQLVESGGGLVQAGGSLRLSCAASGRIFQYYVMGWYRQAPGKERELVAAITSGGGTKYADSVKGRFTISRDNAKNTVYLQMIRLKPEDTAVYYCAAAWFDQYSRYDYWGQCTQVTVSS | low polyreactivity
QVQLVESGGGLVQAGGSLRLSCAASGRIFRANAMGWYRQAPGKEGELVAAISRSAGSTYYADSVKGRFTISRDKAKNTVYLQMNSLKPEDTAVYYCAAVVRNPGTYDYWGQGTQVTVSS | high polyreactivity
QVQLVESGGGLVQAGGSLRLSCAASGRIFRAYAMGWYRQAPGKERELVASISRSGGSTYYADSVKGRFTISRDNSKNTVYLQMYSLKPEDTAVYYCAAVQPVGLYPRTKYYYCGQGTQVTVSS | high polyreactivity
QVQLVESGGGLVQAGGSLRLSCAASGRIFRAYVMGWYRQAPGKEREYVAAITRSGGSTYYADSVKGRFTISRDNAKNTVYLQMNSLKPEDTAVYYCAAPVYLYGTVGRGDYWGQGTQVTVSS | high polyreactivity
QVQLVESGGGLVQAGGSLRLSCAASGRIFRDYGMGWYRQAPGKERELVAAINTSGRTYYADSVKGRFTISRDNAKNTVYLQMNSLKPEDTAVYYCATTSRELGELRIFDYWGQGSQVTVSS | low polyreactivity
QVQLVESGGGLVQAGGSLRLSCAASGRIFRFYAMGWSSQAPGKERELVAAISTSGRTNYADSVKGRFTISRDNAKNTVYLQMNSLKPEDTAVYYCAAGTVLQGWSGAYGYWGQGTQVTVSS | high polyreactivity
QVQLVESGGGLVQAGGSLRLSCAASGRIFRFYAMGWYRHPPGKERELVAAIRRGGSTTYADSVKGRFTISRDNAKNTVYLQMNSLKPEDTAVYYCAATQYYRGYDYWGQGTQVTVSS | high polyreactivity
QVQLVESGGGLVQAGGSLRLSCAASGRIFRFYAMGWYRPAPGKERELVAAISSRGGSTYYADSVKGRFTISRDNAKNTDYFQMNSLKPEDTAVYYCNAYGSTSQMDYWGQGTQVTVSS | high polyreactivity
QVQLVESGGGLVQAGGSLRLSCAASGRIFRFYAMGWYRQAPGKERELVAAINSRGGSTYYADSVKGRFTISRDNAKNTVYLQMNSLKPEDTAFYYCNARSGFGYGYGYWGQGTQVTVSS | high polyreactivity
QVQLVESGGGLVQAGGSLRLSCAASGRIFRFYAMGWYRQAPRKERELVATIRRGDSTSYADSVKGRFTISRDNAKNTVYLQMNSLKPEDTAVYYCAAVWPSHVGTTYFWHKYGYWGQGTQVTVSS | high polyreactivity
QVQLVESGGGLVQAGGSLRLSCAASGRIFRGYAMGWSRQAPGKERELVAVISYSGTRTYYADSVKGRFTISRDNAKNTVYLQMNSLKPEDTAVYYCNARANGFKDGYWGQGTQVTVSS | high polyreactivity
QVQLVESGGGLVQAGGSLRLSCAASGRIFRGYAMGWYRQAPGKEREFVAAITKNGGSTYYADSVKGRFTISRDNAKNTVYLQMHSLKPEDTAVYYCAVRAWDPYTGKSDYWGQGTQVTVSS | low polyreactivity
QVQLVESGGGLVQAGGSLRLSCAASGRIFRGYAMGWYRQAPGKERELVAAINGGDSTYADSVKGRFTISRDNAKNTVFLQMNSLIPEDTAVYYCAAAHYFLGPQGASFYYWGQGTQVTVSS | low polyreactivity
QVQLVESGGGLVQAGGSLRLSCAASGRIFRGYAMGWYRQAPGKERELVAAISGRGGRTNYADSVKGRFTISRDNAKNTVYLQMNSLKPEDTAVYYCATVPYTASRYEYWGQGTQVTVSS | high polyreactivity
QVQLVESGGGLVQAGGSLRLSCAASGRIFRGYAMGWYRQAPGKERELVAAISRRGGSTSYADSVKGRFTISRDNAKNTVYLQMNSLKPEDTAVYYCAVDYSKNGDDYWGQGTQVTVSS | high polyreactivity
QVQLVESGGGLVQAGGSLRLSCAASGRIFRGYGMGWYSQAPGKERVLVAAITSRGGSTYYADSVKGRFTSSRDNAKNTVYLQMNSLKPQDTAVYYCYAVAFYYVGSKTYTRGLDYWGQGTQVTVSS | high polyreactivity
QVQLVESGGGLVQAGGSLRLSCAASGRIFRGYVMGWYRQAPGKERELVAAISSSGGSTYYADSVKGRFTISRDNAKNTVYLQMNSLKPEDTAVYYCAAAKWFFYGRKYGKYDYWGQGTQVTVSS | high polyreactivity
QVQLVESGGGLVQAGGSLRLSCAASGRIFRGYVMGWYRQAPGKERELVARITKSGGRTYYADSVKGRFTISRDNAKNTVYLQMNSLKPEDTAVYYCNTAWTGYPRYQYGGNYWGQGTQVTVSS | high polyreactivity
QVQLVESGGGLVQAGGSLRLSCAASGRIFRHNAMGWYRQAPGKERELVAAISGGGTTYYADSVKGRFTISRDNAKNTVYLQMNSVKPEDTAVYYCAARRRGSVGVGYAYPYNYWGQGTQVTVSS | high polyreactivity
QVQLVESGGGLVQAGGSLRLSCAASGRIFRHYAMGWYRQAPGKERELFAAIDWDGDTTYYADSVKGRFTISRDNAKNTVYLQMNSLKPEDNAVSYCAAEFYSLGKAIYEYWGQGTQVTVSS | high polyreactivity
QVQLVESGGGLVQAGGSLRLSCAASGRIFRHYAMGWYRQAPWKERELVATITSGGRTNYADSVKGRFTISRDNAKNTVYLQMNSLKPEDTAVYYGAVDTWGSSWYDLFRETSDYWGQGTQVTVSS | low polyreactivity

Sequence | polyreactivity (PSR sort gate)
QVQLVESGGGLVQAGGSLRLSCAASGRIFRINAMGWYRQAPGKERELVASISRRGGNTYYADSVKGRFTISRDNAKNTVYLQMNSLKPEDTAVYYCAADTYQERTFDYWGQGTQVTVSS | low polyreactivity
QVQLVESGGGLVQAGGSLRLSCAASGRIFRIYTMGWYREAPGKERELVAAISKSGGGTYYADSVKGRFTISRDNAKNTVYLQMNSLKPEDTAVYYCAAVSPNTAYDYWGQGTQVTVSS | high polyreactivity
QVQLVESGGGLVQAGGSLRLSCAASGRIFRLYAMGWYRQAPGKERELVAAIRSATRTTYADSVKGRFTISRDNAKNTVYLQMNSLKPEDTAFYYCAARLWRYSDVSKYYSWGQGTQVTVSS | high polyreactivity
QVQLVESGGGLVQAGGSLRLSCAASGRIFRLYTMGWYRQAPGKERELVAAISSAGSTKYADSVKGRFTISRDNAKNTVYLQMNSLKPEDTAVYYCAAGRYYYRSGFYTPVRYYSWGQGTQVTVSS | high polyreactivity
QVQLVESGGGLVQAGGSLRLSCAASGRIFRNYAMGWYRQAPGKERELVAAISVSGGRTYYADSVKGRFTISRDNAKNTVYLQMNSLKPEDTAVYYCAARTGRQGYSRGYNSWGQGTQVTVSS | high polyreactivity
QVQLVESGGGLVQAGGSLRLSCAASGRIFRNYAMGWYRQATGKERELVAAISTRSGSTYYADSVKGRSTISRDNAKNTVYLQMNSLKPEDTAVYYCNKVSVGRYYALYYWGQGTQVTVAS | high polyreactivity
QVQLVESGGGLVQAGGSLRLSCAASGRIFRPNAMGWYRQAPGKEREFVAAITSSSGTTYYADSVKGRFTISRDNAKNTVYLQMNSLKPEDTAVYYCAAAQRSVRLKFGYWGQGTQVTVSS | high polyreactivity
QVQLVESGGGLVQAGGSLRLSCAASGRIFRPNAMGWYRQAPGKERELVAAISYSGATTYYADSVKGRFTISRDNAKNTVYLQMNSLKPEDTAVYYCAADTPDAPDYSGFYYWGQGTKVTVSS | low polyreactivity
QVQLVESGGGLVQAGGSLRLSCAASGRIFRPNAMGWYRQAPGKERELVATITSDGSTKYADSVKGRFTISRDNAKNTVYLQMNSLKPEDTAVYYCAVRWARRYRYYYWGQGTQVTVSS | high polyreactivity
QVQLVESGGGLVQAGGSLRLSCAASGRIFRPYAMGWYRQAPGKERELVAGITSSGGSTYYADSVKGRFTISRDNAKNTVYLQMNSLKPEDTAVYYCAADYGWGSGFEYDYWGQGTQVTVSS | low polyreactivity
QVQLVESGGGLVQAGGSLRLSCAASGRIFRRNAIGWYRQAPGKERELEAAISSGCGSKYYADSVKGRFTISRDNAKNTVYLQMNSLKPEDTAVYYCNTVFYYDDVSQAHDYWGQGTQVTVSS | high polyreactivity
QVQLVESGGGLVQAGGSLRLSCAASGRIFRRNTKGWYRQAPGKERELVAAITSAGGSTYADSVKGRFTISRDNAKNTVYFQMNSLKPEDTAVYYCATYVAYHRGYRTYDHWAQGTQVTVSS | low polyreactivity
QVQLVESGGGLVQAGGSLRLSCAASGRIFRRYAMGWYRQAPGKERELVAAISSGGSTNYADSVKGRFTLSRDNAKNTVYLQMNSLKPEDTAVYYCAARRTATTSRAYYYWGQGTQVTVSS | high polyreactivity
QVQLVESGGGLVQAGGSLRLSCAASGRIFRRYAMGWYRQAPGKERELVAAITSGGSTYADSVKGRFTISRDNAKNTVYLQMNSLKPEDTAVYYCAADDAQGFDYWGQGTQVTVSS | high polyreactivity
QVQLVESGGGLVQAGGSLRLSCAASGRIFRRYAMGWYRQAPGKERELVAALTRSGGSTYYADSVKGRFTISRDNAKNTVYLQMNSLKPEDTAVYYCYAPSSLGTDYDYWGQGTQVTVSS | high polyreactivity
QVQLVESGGGLVQAGGSLRLSCAASGRIFRSNAMGWYRQAPGKERELVAAISGSGSTTNYADSVKGRFTISRDNAKNTVYLQMNSLKPEDTAVYYCATGKRGVSGRGFRYDYWGQGTQVTVSS | high polyreactivity
QVQLVESGGGLVQAGGSLRLSCAASGRIFRSNVMGWYRQAPGKERELVAAITGRGSSTYYADSVKGRFTISRDNAKNTVYLQMNSLKPEDTAVYYCAKASRYWSLYYWGQGTQVTVSS | high polyreactivity
QVQLVESGGGLVQAGGSLRLSCAASGRIFRSYALGWYRQAPGKERELVAAISSSDGSTYYADSVKGRFTISRDNAKNTVYLQMNSLKPEDTAVYYCNAEQVCYTYGRYPEWYLYGYWGQGTQVTVSS | low polyreactivity
QVQLVESGGGLVQAGGSLRLSCAASGRIFRSYAMGWYRQAPGKERELVAAISGSGGSTYYADSVKGRFTISRDNAKNTVYLQMNSLKPEDTAVYYCNRARGASYHGQSDYWGQGTQVTVSS | high polyreactivity
QVQLVESGGGLVQAGGSLRLSCAASGRIFRSYAMGWYRQAPGKERELVAAISSGVITYYADSVKGRFTISRDNEKNTVYLQMNSLKPEDTAVYYCNARWRFLYDYWGQGTQVTVSS | high polyreactivity

Source: the nanobody polyreactivity screen of Harvey et al. (2022)
